# Experimental data published in PMC10558600.
# Like-named read-outs stand apart in the source and are kept apart here.
# Experiments:
# [1] = target: Aedes aegypti membrane-bound alkaline phosphatase (Aa-mALP) (Aedes aegypti); assay: ELISA
# [2] = target: Aedes aegypti membrane-bound alkaline phosphatase (Aa-mALP) (Aedes aegypti); assay: ELISA; remark: listed apart in the source
substance,measurement,setting,value
65 kDa trypsin-activated Cry4Ba-R203Q toxin (natural protein),Kd,[1],76.2 nM
same,Kd,[2],76.5 nM
